Measured values reported in the DeepSol protein solubility set.

Experiment: soluble on expression in E. coli; label from the status in PepcDB or PDB records

Q: With “MNKEAFERLPQEKKKIIETAYFSAVRKEISASQFFGVCKEALSKDQFESLFSSSTAGREQQEEMKTEHLQDIIQYSGVDLKEEAEHIVRETETNINFGEYEEEDVNNHIGSLMNVPLFREFVSRIGNSRRVGISEESFFLLFQVAKRKMLDIVEKMEESSKWRVEYNLSEFIIRIKNDLSRQLWCLEQIEKAEIEKFTIRRGEEEGRKKVKKTIQEREDLVIKKRLSNTVALAALGIQQKSWMSAEDVRVSEESTAFNSIYSPFDEKALERKVVNRTITMKDFLYVLERDRRYSKSVFTIQHYFRRGSA” as the sequence, how does the “soluble on expression in E. coli” value read?
A: Its value is “not soluble”.

Q: Which “soluble on expression in E. coli” value does the source give for “MNKEMTLLPPPELVQYVGGDFKKVGKEFLKHFIQIGALKSNEKVLDVGCGVGRMAVPLMNYLNDDGAYYGFDLFKDGITWCQNNISTMRNNFHFEHVDIYNQFYNPEGKEDASQYRFPYEDGTFDFIFLTSVFTHLLPKELEHYVSEIVRVLKKDGRCFITFFLINPESSYYLNAGQSTLGFYHRIENCYVVNKDIPNFAVAYPETDICNLLNKYGLEIINKPHYGLWCGRHEYTSYQDIVLTKKSLEHHHHHH” here?
A: Its value is “not soluble”.

Q: For “MNKKSVGQPPEGLHETKSLASALPEKNAEQRPKYVQIVALPSEIKSRELPIAPDNVVYFNGPTHYLSALYPCTVVVDGNEYNSVEHYYQACKLYVLTGEQSAAQLKASETPIEVKKATKNILKEAKIPAKKISAWKDKDSIAVLKHVIYHKFNQNDELKVKLLDTGDKILIQTYIGDTYFAAGANAKYTSTWVDRHVNQSLKYPENVVVDNVQYLPLVANGKNVLGWILMQVRDELRMRSSA”, which “soluble on expression in E. coli” value is on record?
A: The value was “soluble”.

Q: For “MNKLSRTDEENRQTEFSSSPLSDSVHSCLGFNRKKERKRRTSGDIEQTDKRKRTEERPSDKITFASNVFDNLARVTAERDNPEKLSKYKNIPGVGTRENIDEGISDINQPSSKSSGVKSKYVEVMSLFQKSIQKFSIMNLDYMYTFDWNHYSKKNIQYVVFTKVCQSHAPGHFVEMLKEDCSCRDCGSADLAVKVRLTVPLDLSDIPIPCSEDIQIHVSFLADDLLERHISSNVNRSSNRDDLDFSRRTCEKMYDLYQKMMRGQSSRMYTEWFDKCKIFVKNFLFSKSLHLYHGNVIRRKIEESQTLNKRRCFIFAQIFDLE”, which “soluble on expression in E. coli” value is on record?
A: Its value is “not soluble”.

Q: For “MNKLYIDSFVEKKLTAGVQLLDEKDFSNIKEKNQLVQLVTKSNRPIGTAYISKQNKGIGWYLGPEKIDLSISYFVSLFSVAKAKRQDFAQSDETNAYRLFNQEGDGFGGVTIDLYKDFAVFSWYNAFVYDKKEMIMEAFQQVFPEVKGAYEKCRFKGPDTETAHLYGELAQETFSILENGIAYQVFLNEGLMTGIFLDQHDVRRALVDGLAMGKSLLNLFSYTAAFSVAAAMGGAIETTSVDLAKRSRELSLAHFEHNQLNLASHHFVVMDVFEYFKYAKRKKLIFDVIVIDPPSFARNKKQTFSVSRDYHKLITEALDILSPKGTIIASTNAANMTVSQFKKQIIKGFGSRRPESMTLQQLPSDFTINKADERSNYLKVFTIKVRE”, which “soluble on expression in E. coli” value is on record?
A: The value was “not soluble”.

Q: For “MNKMLYGWLLAACCGLPPAFAGDSVDVLAQPALHGPQALRAVLQDVARADARLVAVGERGVVLLSDDNGATWRQATAVPVGVSLTAVQFIDARNGWAVGHAGVVLHSQDGGEHWSVQLDGKRAAALEVQAAEAAADERRLAAAQRLLADGADKPLLALNFTDARNGLVVGAYGVAMRTDDGGRSWQSEIGRLPNGRGLHLYALARQGNQVYIAGEQGLLLRSRDGGEHYEALHGPYDGSYFAATVLPDGRLLLGGLRGSLFASDDGGDSFQALANPTPASINGLRVAGGQLLLANQAGMLLRSGLGAFAAQPVAVSDGLPLTAATTAADGSIVAVGMAGARRLEPSSLEHHHHHH”, which “soluble on expression in E. coli” value is on record?
A: The value was “not soluble”.

Q: With “MNKNGFSRCADIYIGRLREEGRYSTAHVYQNALLSFSKFCGVHSVSFRQVTRERLRCYEQHLYECGLKPNTISTYMRMLRSIYNRGVEAGSAPYVHRLFHEVYTGVDVRQKRALPVVALRRLLYEDPQSDRLRRTQAIAALMFQFCGMSFADLSHLEKSALDSNVLRYNRVKTKTPMSVEVLDSAQEMLDQLRNRQSPRPGCPDYLFGILHGDKKRKDERAYREYQSALRRFNYCLKSLAKRLRLNFPVTSYTLRHSWATTAKYRGVPIEMISESLGHKSIKTTQIYLKGFELKERTEVNRMNLSYVKRCGVGQCI” as the sequence, how does the “soluble on expression in E. coli” value read?
A: The value was “not soluble”.

Q: Which “soluble on expression in E. coli” value does the source give for “MNKRNWTAYYNSTKQNTLPRKSLLKAIANFDKEKINLSKSAIDLGCGAGIDVMELLRCGWSVIAIDSQLSAIDSLLSSAQELTCANKLKTIISSFEALDSLPKVNLINASFSLPFLKPVYFYKFWSVILKGLKPGGRFSGSFFGFNDFWNTRTDMTFLNREMICHLFSQFKIEYFQEEEKDEMDALGYYKHWHKFFIVAKKIALEHHHHHH” here?
A: Its value is “not soluble”.

Q: With “MNLFFDTELGKQQNKATHKIRVMSEAWLEKNGYCPCCGSKPMQRFANNKPVADLFCPNCHEQYELKSKNQKTIGNSVPDGAYHTMLERIRSDTNPNFFFLAYKKADYSIRQLVLVPKHFITPDMIIPRNKGIKNRPNHIMCSINLAPLPESGKIFLIDNSRIIEPETVLKKWQSNLFLRNQNAERKGWLLAVMKCIDQLPEEFTLSQMYEFENKLSIQFPQNNHIRDKIRQQLQILRDQNTIEFIGRGLYKKS” as the sequence, how does the “soluble on expression in E. coli” value read?
A: Its value is “not soluble”.

Q: Which “soluble on expression in E. coli” value does the source give for “MNLFYNPKGVGDVAFIQIEPSVGPFEYEQKHGVVEIKKENEVVGYNIFNVSNNVTINDNGHIKLTTELIKDLQQLITEAGFDYQLDTDVSPKFVVGYVETKEKHPNADKLSVLNVNVGTEKLQIVCGAPNVESGQKVVVAKVGAVMPSGMVIKDAQLRGVDSSGMICSMKELNLPNAPKEKGIMVLNDDYDIGQAFFELEHHHHHH” here?
A: Its value is “soluble”.

Q: Which “soluble on expression in E. coli” value does the source give for “MNLHEYQAKEILARYGVPVPPGKVAYTPEEAKRIAEEFGKRVVIKAQVHVGGRGKAGGVKLADTPQEAYEKAQAILGMNIKGLTVKKVLVAEAVDIAKEYYAGLILDRAKKRVVLMLSKEGGVDIEEVAAERPEAIHKFWIDPHKGFRPFEAREMVKRAGLEGNLNKLAQVLVALYRAYEGVDASIAEINPLVVTTDGGIVAADAKIVLDDNALFRHPDLAELREVEAEHPLEVEASNYGFAYVKLDGNIGIIGNGAGLVMYTLDLVNRVGGKPANFLDIGGGAKADVVYNALKVVLKDPDVKGVFINIFGGITRADEVAKGVIRALEEGLLTKPVVMRVAGTAEEEAKKLLEGKPVYMYPTSIEAAKVIVAMVGGAA” here?
A: Its value is “soluble”.

Q: With “MNLPGAAEPQGGNEIPEYTGVAWHYGQPLVEQRYFERSGGFVDRSHRGVLCISGEDAAVFLNNLVSQKLIDLPHPWAGEALDLDIQGHVVHHMEIIATDEVFYVHVPAAQLESLHTFFTRMIFWSKVTIEVIDAAVISVISAQHLDALVDVPLPEALAVSPVIDFSLPRRDILVPRASLMAVAASLQEHGFQPAGMMAYTAARVRSVQPVMSLDMDATTIPHEAASLIGRGDHIGAVHLNKGCYRGQETVGRVENLGRSPRVLVMVLIDGSAPEQPHPAAPLTAGGRTVGFLGTVVDDFELGPIGLAVVKRSALKSATLQAGDDVALSIDPDSLPHDDGEKAGRVAINKLRGL” as the sequence, how does the “soluble on expression in E. coli” value read?
A: The value was “not soluble”.

Q: Which “soluble on expression in E. coli” value does the source give for “MNLTNYHSHTLYCDGRAGMEDFIRFAISRGFTSYGISSHAPLPFPTHWTMEWDRMDDYLDEFTRMKEKYASEIELAVGLEIDYLNEDSNPSVRRFQELPLDYRIGSVHLLYNDRDEVVDIDVCAEVFRDIVDQHFGGDLDRVIHLYYDRLLRMVELGGFDILGHADKMHHNAACYRPGLLDESWYDALIHDYFSAVAAKGYIVEINTKALHHLNTFFPNERYFPLLKELGVRVQVNSDSHYPERINSGRPEALAALQKAGFETVTEWHGGKWIEMPL” here?
A: Its value is “not soluble”.

Q: Which “soluble on expression in E. coli” value does the source give for “MNLYLITFQSSLNRIESVYDCHKDLFVEIEKFFTLHLVPYTEAASIPADAYRMAFIASGGVEKMVTQHFELLPYPIHLLTDGQQNSLAASLEIATWIRSKGMKVHIIHGTIPNMVKQLIDHHKAFAAQREVRGKRIGVVGYSSPWLVASNVDYLLAKRRWGIEFIDIPMEEVYCLFYQIKDDDIGYEASVFANRAIACREGTPEDLLKAMRLYQAVKIICEKKKLDAVTLSCFSLIEKLGTTGCLALALLNDEGIPAGCEGDLQSIFTLLIAKTLTGQAGFMANPAFINDDQNEIVMAHCTIATKMVDQFIIRNHFETETGIAIQGILHPGGITMIKCAGECLDEYFVSTGQLIENTNYINACRTQARIKLDKPVDYFMRNPLGNHHIILMGDHEKVIHEFMQLNSCKLVE” here?
A: Its value is “not soluble”.

Q: With “MNMIDQLNITDFQVFTDENSDKFVSKIYKFSSKMILSDFHAQPQGFLNGGASLALAEITAGMASNAIGSGQYFAFGQSINANHLNPKKCEGFVNARGLLLKNGKRNHVWEIKITDENETLISQITVVNALVPQKNSDKLEHHHHHH” as the sequence, how does the “soluble on expression in E. coli” value read?
A: Its value is “soluble”.

Q: Which “soluble on expression in E. coli” value does the source give for “MNMKTIEDVFIHLLSDTYSAEKQLTRALAKLARATSNEKLSQAFHAHLEETHGQIERIDQVVESESNLKIKRMKCVAMEGLIEEANEVIESTEKNEVRDAALIAAAQKVEHYEIASYGTLATLAEQLGYRKAAKLLKETLEEEKATDIKLTDLALNNVNKKAENKA” here?
A: Its value is “soluble”.

Q: For “MNMVGHSYGNIAIVYYMLQHGSDTSLPKLVKQVDIAGHFNGIIGMDEPEENSLDGEGKPTSMTGSYEELLSLGDNYPQGQVEVLNIYGNTGKESDERVTNLSSQSLAYLLKGHVKSYQEKKITGLNGQHSKLHETTLVDKPLNAFLWGK”, which “soluble on expression in E. coli” value is on record?
A: Its value is “not soluble”.

Q: Which “soluble on expression in E. coli” value does the source give for “MNNFILLEEQLIKKSQQKRRTSPSNFKVRFFVLTKASLAYFEDRHGKKRTLKGSIELSRIKCVEIVKSDISIPCHYKYPFQVVHDNYLLYVFAPDRESRQRWVLALKEETRNNNSLVPKYHPNFWMDGKWRCCSQLEKLATGCAQYDPTKNASKKPLPPTPEDNRRPLWEPEETVVIALYDYQTNDPQELALRRNEEYCLLDSSEIHWWRVQDRNGHEGYVPSSYLVEKSPNNLETYEWYNKSISRDKAEKLLLDTGKEGAFMVRDSRTAGTYTVSVFTKAVVSENNPCIKHYHIKETNDNPKRYYVAEKYVFDSIPLLINYHQHNGGGLVTRLRYPVCFGRQKAPVTAGLRYGKWVIDPSELTFVQEIGSGQFGLVHLGYWLNKDKVAIKTIREGAMSEEDFIEEAEVMMKLSHPKLVQLYGVCLEQAPICLVFEFMEHGCLSDYLRTQRGLFAAETLLGMCLDVCEGMAYLEEACVIHRDLAARNCLVGENQVIKVSDFGMTRFVLDDQYTSSTGTKFPVKWASPEVFSFSRYSSKSDVWSFGVLMWEVFSEGKIPYENRSNSEVVEDISTGFRLYKPRLASTHVYQIMNHCWKERPEDRPAFSRLLRQLAEIAESGL” here?
A: The value was “soluble”.

Q: With “MNNILNQIKKEVNMDLLNGLWPGFKRAAFALYDDEHVYVFHHPLFLKDNDEYRVLKWEEQFKGDTCILFKDYPTAIVNMNRYKDYASLLAIVVHELFHCYQYLNKESRFPNESLGFQYPIIEENIQLRNKERICLYDAVHCKSQAEKNNYIKQFIELREQRASVMGEAFITYEYMVESIEGPAWYVEMNAYNTVCKSDESDTLRKYSGLILDVYDANCNMRKSCYSSGMLLCLLLDEILPEWKISFFNSDKSLYAFLKQNINVDLSLNNEITISKETKQILHFVQNERDKEIKQFYGEEGYDLYIVGDIKLNSFNPMNVKLNGNKVLHKTFLSVSIHNKTYMINQPVLASFEEDFKNMTQVHIIMNEKPIETKNG” as the sequence, how does the “soluble on expression in E. coli” value read?
A: Its value is “not soluble”.
